Data on four molecules can be found in PMC4253074 (Journal of molecular biology, 2014).

Substitutions are numbered along the chain they refer to.

Assay in all cases: cross-linking
For experiment [1], the target named is PDE6 catalytic dimer (Pαβ) (bovine, UniProt P11541 1-859; P23439 1-853).
Experiment [2] concerns the target T1, PDE6 β-subunit (Pβ), catalytic subunit of bovine rod photoreceptor phosphodiesterase (bovine, UniProt P23439 1-853).
T1 sequence (looked up): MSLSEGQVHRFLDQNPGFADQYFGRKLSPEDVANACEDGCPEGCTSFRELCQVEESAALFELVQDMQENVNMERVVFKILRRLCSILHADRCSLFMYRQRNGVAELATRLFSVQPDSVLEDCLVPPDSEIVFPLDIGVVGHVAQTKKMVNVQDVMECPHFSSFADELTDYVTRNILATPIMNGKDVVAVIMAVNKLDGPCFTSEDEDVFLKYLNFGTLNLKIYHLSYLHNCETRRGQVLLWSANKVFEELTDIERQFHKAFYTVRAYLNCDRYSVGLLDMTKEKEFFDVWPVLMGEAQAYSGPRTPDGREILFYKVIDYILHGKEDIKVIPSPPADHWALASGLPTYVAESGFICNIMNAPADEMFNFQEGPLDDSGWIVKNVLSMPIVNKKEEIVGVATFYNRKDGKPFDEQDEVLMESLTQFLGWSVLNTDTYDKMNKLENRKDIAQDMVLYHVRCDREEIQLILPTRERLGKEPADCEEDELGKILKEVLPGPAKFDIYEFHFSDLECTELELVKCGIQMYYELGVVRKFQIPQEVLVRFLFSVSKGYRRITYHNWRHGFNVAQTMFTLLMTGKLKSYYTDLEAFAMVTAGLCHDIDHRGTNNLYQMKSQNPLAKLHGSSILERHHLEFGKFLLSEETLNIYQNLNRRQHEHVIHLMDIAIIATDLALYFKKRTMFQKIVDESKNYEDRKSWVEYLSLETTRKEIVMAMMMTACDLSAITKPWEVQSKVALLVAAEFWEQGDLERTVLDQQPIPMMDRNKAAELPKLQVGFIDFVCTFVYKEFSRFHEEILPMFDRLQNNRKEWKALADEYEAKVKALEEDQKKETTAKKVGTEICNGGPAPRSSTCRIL

Experiment [3] addresses T2, PDE6 α-subunit (Pα), catalytic subunit of bovine rod photoreceptor phosphodiesterase (bovine, UniProt P11541 1-859).
T2 sequence (looked up): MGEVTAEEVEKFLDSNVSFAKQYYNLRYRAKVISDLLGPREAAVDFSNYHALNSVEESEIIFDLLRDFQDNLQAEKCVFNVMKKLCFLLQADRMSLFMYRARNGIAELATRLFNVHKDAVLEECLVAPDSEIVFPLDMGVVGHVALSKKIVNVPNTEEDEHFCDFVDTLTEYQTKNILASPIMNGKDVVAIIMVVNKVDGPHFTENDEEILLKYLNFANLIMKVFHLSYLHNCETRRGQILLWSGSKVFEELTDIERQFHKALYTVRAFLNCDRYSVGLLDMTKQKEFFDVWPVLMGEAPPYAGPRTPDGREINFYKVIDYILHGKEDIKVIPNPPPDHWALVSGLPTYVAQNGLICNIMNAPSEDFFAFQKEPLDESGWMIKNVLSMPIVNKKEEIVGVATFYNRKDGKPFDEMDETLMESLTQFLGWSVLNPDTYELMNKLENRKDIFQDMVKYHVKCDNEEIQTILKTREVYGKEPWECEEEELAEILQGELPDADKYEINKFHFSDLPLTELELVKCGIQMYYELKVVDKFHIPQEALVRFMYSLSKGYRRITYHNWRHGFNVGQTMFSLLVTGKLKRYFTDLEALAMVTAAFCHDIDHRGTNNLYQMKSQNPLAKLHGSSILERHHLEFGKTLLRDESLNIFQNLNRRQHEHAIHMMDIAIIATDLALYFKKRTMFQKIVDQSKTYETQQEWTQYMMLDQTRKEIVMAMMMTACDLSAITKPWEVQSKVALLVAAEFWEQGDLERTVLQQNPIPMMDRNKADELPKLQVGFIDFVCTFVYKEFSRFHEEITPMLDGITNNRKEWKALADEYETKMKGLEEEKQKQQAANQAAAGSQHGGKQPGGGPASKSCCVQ

B1: PDE6 inhibitory γ-subunit (Pγ), endogenous, in the purified PDE6 holoenzyme (natural protein, bovine, UniProt P04972 1-87, looked up)
chain: MNLEPPKAEIRSATRVMGGPVTPRKGPPKFKQRQTRQFKSKPPKKGVQGFGDDIPGMEGLGTDITVICPWEAFNHLELHELAQYGII
For the molecule B1, the binding result in experiment [1] was “binds”.

B2: wild-type Pγ, recombinant (Pγ 1–87) (natural protein, bovine, UniProt P04972 1-87, looked up)
chain: B1 chain
On to B2, for which the binding result in experiment [1] is reported as “binds”.

B3: Pγ 73C-MBP (natural protein, bovine, UniProt P04972 1-87, looked up)
chain: B1 chain with C68S, F73C
modifications: 4-(N-maleimido)benzophenone (MBP) on Cys73
Consider B3, for which the binding result in experiment [2] and in experiment [3] was “binds” throughout.

B4: Pγ 30C-MBP (natural protein, bovine, UniProt P04972 1-87, looked up)
chain: B1 chain with F30C, C68S
modifications: 4-(N-maleimido)benzophenone (MBP) on Cys30
For B4, the binding result in experiment [2] was “binds”.
